T1: DDX49 on the HuProt array (human, UniProt Q9Y6V7 1-483)
T1 construct: DDX49, human; array proteins are said to come from full-length genes; source: immobilised on the Human Proteome Microarray v3.0 (HuProt array)
T1 sequence (looked up): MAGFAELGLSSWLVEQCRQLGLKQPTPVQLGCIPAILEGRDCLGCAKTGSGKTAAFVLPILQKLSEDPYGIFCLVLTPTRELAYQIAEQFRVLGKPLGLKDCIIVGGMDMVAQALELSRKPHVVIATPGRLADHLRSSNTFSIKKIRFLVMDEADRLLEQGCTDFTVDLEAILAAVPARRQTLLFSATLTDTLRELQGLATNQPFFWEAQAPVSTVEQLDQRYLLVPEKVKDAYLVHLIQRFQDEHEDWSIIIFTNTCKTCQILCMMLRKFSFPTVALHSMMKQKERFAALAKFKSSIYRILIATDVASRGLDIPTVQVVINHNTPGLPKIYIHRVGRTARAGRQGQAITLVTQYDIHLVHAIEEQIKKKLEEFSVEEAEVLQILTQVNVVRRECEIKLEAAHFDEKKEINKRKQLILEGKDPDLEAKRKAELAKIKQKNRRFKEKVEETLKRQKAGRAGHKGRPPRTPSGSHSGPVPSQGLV

T2: PLEK on the HuProt array (human, UniProt P08567 1-350)
T2 construct: PLEK (pleckstrin), human; array proteins are said to come from full-length genes; source: immobilised on the Human Proteome Microarray v3.0 (HuProt array)
T2 sequence (looked up): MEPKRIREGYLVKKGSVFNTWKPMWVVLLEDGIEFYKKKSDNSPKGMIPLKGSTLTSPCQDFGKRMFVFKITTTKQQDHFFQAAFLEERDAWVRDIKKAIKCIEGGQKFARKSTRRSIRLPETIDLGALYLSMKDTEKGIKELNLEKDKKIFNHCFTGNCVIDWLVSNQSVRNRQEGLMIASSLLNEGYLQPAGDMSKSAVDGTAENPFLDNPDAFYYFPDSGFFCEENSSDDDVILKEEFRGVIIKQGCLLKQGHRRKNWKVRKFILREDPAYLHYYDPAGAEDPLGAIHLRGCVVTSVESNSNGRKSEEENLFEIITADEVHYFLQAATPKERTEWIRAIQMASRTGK


Legend:
[1] = target: T1, DDX49 on the HuProt array; assay: peptide or protein array; details: both partners purified
[2] = target: T2, PLEK on the HuProt array; assay: peptide or protein array; details: both partners purified

Binder	binding result [1]	binding result [2]
ZIKV-NS4B, N-terminal GST fusion, Cy5-labelled (natural protein, Cy5 (NHS-tethered dye), sites not stated, also called SN4B; source: yeast (vector pEGH-A), purified on glutathione beads; not shown: GST, N-terminal, kept) NELGWLERTKNDIAHLMGRREEGATMGFSMDIDLRPASAWAIYAALTTLITPAVQHAVTTSYNNYSLMAMATQAGVLFGMGKGMPFMHGDLGVPLLMMGCYSQLTPLTLIVAIILLVAHYMYLIPGLQAAAARAAQKRTAAGIMKNPVVDGIVVTDIDTMTIDPQVEKKMGQVLLIAVAISSAVLLRTAWGWGEAGALITAATSTLWEGSPNKYWNSSTATSLCNIFRGSYLAGASLIYTVTRNAGLVKRR	binds	
ZIKV-NS2A, N-terminal GST fusion, Cy5-labelled (natural protein, Cy5 (NHS-tethered dye), sites not stated, source: yeast (vector pEGH-A), purified on glutathione beads; not shown: GST, N-terminal, kept) GSTDHMDHFSLGVLVILLMVQEGLKKRMTTKIIMSTSMAVLVVMILGGFSMSDLAKLVILMGATFAEMNTGGDVAHLALVAAFKVRPALLVSFIFRANWTPRESMLLALASCLLQTAISALEGDLMVLINGFALAWLAIRAMAVPRTDNIALPILAALTPLARGTLLVAWRAGLATCGGIMLLSLKGKGSVKKNLPFVMALGLTAVRVVDPINVVGLLLLTRSGKR		binds

Reference: publication PMC8498969, “An Integrated Systems Biology Approach Identifies the Proteasome as A Critical Host Machinery for ZIKV and DENV Replication” (Genomics, Proteomics & Bioinformatics, 2021)
